{"source": "patent US20190336574A1", "about": "(TRUSTEES OF PRINCETON UNIVERSITY, published 2019)", "data": [{"target": "T1, His6-SND1ΔC (SND1 residues 1-339) (human, UniProt Q7KZF4 1-339)", "T1 construct": "not shown: N-terminal His tag (His6, His8 or His) with TEV site, pQlink vector", "T1 sequence": "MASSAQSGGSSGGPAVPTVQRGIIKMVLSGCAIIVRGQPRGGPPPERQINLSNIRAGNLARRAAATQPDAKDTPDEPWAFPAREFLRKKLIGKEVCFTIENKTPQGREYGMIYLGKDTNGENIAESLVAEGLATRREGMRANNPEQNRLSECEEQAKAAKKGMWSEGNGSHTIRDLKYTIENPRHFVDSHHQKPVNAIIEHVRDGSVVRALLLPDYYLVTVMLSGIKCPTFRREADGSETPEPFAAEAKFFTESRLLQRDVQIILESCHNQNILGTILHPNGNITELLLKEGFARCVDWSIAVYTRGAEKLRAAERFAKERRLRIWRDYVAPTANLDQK", "assay": "GST pull-down of His6-SND1ΔC, SDS-PAGE, Coomassie", "source_text": "FIGS. 7A-E represents determination of key regions and residues mediating the MTDH-SND1 interaction. (FIG. 7A) Schematics of MTDH fragments and mutants with indicated SND1-binding capability. + indicates binding and − indicates no binding based on results shown below. Two putative nuclear localization signals are residues 432-451 for NLS2 and residues 561-580 for NLS3. […] (FIG. 7B) Pulldown of His6-SND1ΔC by GST-tagged MTDH fragments with indicated boundaries. The bound proteins were examined by SDS-PAGE and visualized by Coomassie blue staining. […] For (FIG. 7B) and (FIG. 7C), 1/10 of the His6-SND1ΔC input was shown, and GST alone was used as a negative control. Representative results of 3 independent experiments are shown. (FIG. 7D, FIG. 7E) Lysates from HEK293T cells expressing the indicated ectopic human SND1, AGO2 or MTDH were immunoprecipitated with anti-Myc and immunoblotted with the indicated antibodies.\nTPM1 comprises mutations D389R, D393R and W394D. TPM2 comprises mutations E399R, E400R and W401D. TPM3 comprises mutations W404D, D406R and E407R. […] The mutations are also set out in Table 3.", "values": [{"binder": "GST-MTDH (1-289) (other, not shown: N-terminal GST tag with TEV site, pQlink vector) MAARSWQDELAQQAEEGSARLREMLSVGLGFLRTELGLDLGLEPKRYPGWVILVGTGALGLLLLFLLGYGWAAACAGSRKKRRSPPRKREEAAAVPAAAPDDLALLKNLRSEEQKKKNRKKLSEKPKPNGRTVEVAEGEAVRTPQSVTAKQPPEIDKKNEKSKKNKKKSKSDAKAVQNSSRHDGKEVDEGAWETKISHREKRQQRKRDKVLTDSGSLDSTIPGIENTITVTTEQLTTASFPVGSKKNKGDSHLNVQVSNFKSGKGDSTLQVSSGLNENLTVNGGGWNEK", "binding result": "no binding"}, {"binder": "GST-MTDH (364-582) TPM1 (D389R, D393R, W394D) (other, not shown: N-terminal GST tag with TEV site, pQlink vector) YQWDVSRNQPYIDDEWSGLNGLSSARPNSRDNAPAEEWGNWVDEERASLLKSQEPIPDDQKVSDDDKEKGEGALPTGKSKKKKKKKKKQGEDNSTAQDTEELEKEIREDLPVNTSKTRPKQEKAFSLKTISTSDPAEVLVKNSQPIKTLPPATSTEPSVILSKSDSDKSSSQVPPILQETDKSKSNTKQNSVPPSQTKSETSWESPKQIKKKKKARRET", "binding result": "no binding"}, {"binder": "GST-MTDH (364-582) TPM2 (E399R, E400R, W401D) (other, not shown: N-terminal GST tag with TEV site, pQlink vector) YQWDVSRNQPYIDDEWSGLNGLSSADPNSDWNAPARRDGNWVDEERASLLKSQEPIPDDQKVSDDDKEKGEGALPTGKSKKKKKKKKKQGEDNSTAQDTEELEKEIREDLPVNTSKTRPKQEKAFSLKTISTSDPAEVLVKNSQPIKTLPPATSTEPSVILSKSDSDKSSSQVPPILQETDKSKSNTKQNSVPPSQTKSETSWESPKQIKKKKKARRET", "binding result": "no binding"}]}, {"target": "His-SND1 (16-339), SN1/2 domains, wild type (human) (UniProt Q7KZF4)", "assay": "GST pull-down on glutathione resin, SDS-PAGE, Coomassie blue; normalised percentage of binding, mean±SEM of three experiments", "units": {"% Maximum binding": "%"}, "values": [{"binder": "GST-MTDH (364-582) W401A (protein, not shown: a dimerising Fc or GST) YQWDVSRNQPYIDDEWSGLNGLSSADPNSDWNAPAEEAGNWVDEERASLLKSQEPIPDDQKVSDDDKEKGEGALPTGKSKKKKKKKKKQGEDNSTAQDTEELEKEIREDLPVNTSKTRPKQEKAFSLKTISTSDPAEVLVKNSQPIKTLPPATSTEPSVILSKSDSDKSSSQVPPILQETDKSKSNTKQNSVPPSQTKSETSWESPKQIKKKKKARRET", "% Maximum binding": 6}, {"binder": "GST-MTDH (364-582) W394D (protein, not shown: a dimerising Fc or GST) YQWDVSRNQPYIDDEWSGLNGLSSADPNSDDNAPAEEWGNWVDEERASLLKSQEPIPDDQKVSDDDKEKGEGALPTGKSKKKKKKKKKQGEDNSTAQDTEELEKEIREDLPVNTSKTRPKQEKAFSLKTISTSDPAEVLVKNSQPIKTLPPATSTEPSVILSKSDSDKSSSQVPPILQETDKSKSNTKQNSVPPSQTKSETSWESPKQIKKKKKARRET", "% Maximum binding": 4}]}, {"target": "T2, murine SND1, wild type (mouse, UniProt Q78PY7 1-910)", "T2 construct": "Endogenous protein of murine PyMT mammary tumor cells; also called SND1 (in PyMT tumor cells); WT shRNA-resistant murine SND1", "T2 sequence (looked up)": "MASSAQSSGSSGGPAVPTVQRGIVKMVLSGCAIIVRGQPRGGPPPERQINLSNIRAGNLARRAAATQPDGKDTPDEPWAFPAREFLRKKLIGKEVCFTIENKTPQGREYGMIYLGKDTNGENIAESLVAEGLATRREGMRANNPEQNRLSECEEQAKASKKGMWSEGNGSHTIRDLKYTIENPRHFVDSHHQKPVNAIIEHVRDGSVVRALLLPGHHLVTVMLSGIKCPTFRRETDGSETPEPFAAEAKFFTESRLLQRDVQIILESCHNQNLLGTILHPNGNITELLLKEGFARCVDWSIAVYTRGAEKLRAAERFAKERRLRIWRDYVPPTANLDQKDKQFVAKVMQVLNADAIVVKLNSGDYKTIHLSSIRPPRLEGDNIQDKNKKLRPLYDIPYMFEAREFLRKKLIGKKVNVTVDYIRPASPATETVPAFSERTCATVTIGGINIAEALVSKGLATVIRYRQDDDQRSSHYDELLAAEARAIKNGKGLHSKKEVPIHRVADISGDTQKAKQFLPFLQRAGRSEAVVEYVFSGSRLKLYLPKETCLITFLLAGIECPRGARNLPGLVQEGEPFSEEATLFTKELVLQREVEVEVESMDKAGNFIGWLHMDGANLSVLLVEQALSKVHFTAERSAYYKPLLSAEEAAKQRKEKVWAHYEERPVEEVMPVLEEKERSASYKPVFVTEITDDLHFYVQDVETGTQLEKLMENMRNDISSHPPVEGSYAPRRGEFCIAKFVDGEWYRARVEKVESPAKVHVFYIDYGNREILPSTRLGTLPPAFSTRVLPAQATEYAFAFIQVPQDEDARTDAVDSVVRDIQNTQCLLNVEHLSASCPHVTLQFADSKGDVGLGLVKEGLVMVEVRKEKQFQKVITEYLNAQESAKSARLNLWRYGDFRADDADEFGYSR", "assay": "co-IP (anti-MTDH) from reconstituted PyMT;Mtdh-/- tumor cells, western blot", "source_text": "IP lysates were subjected to western blotting with indicated antibodies.\nIn particular, genetic deletion of Mtdh in mice impairs the tumor-initiating potential of mammary epithelial cells transformed by diverse oncogenes (PyMT, Wnt, ErbB2) or carcinogen stimuli, and this defect can be readily rescued by reintroducing MTDH into Mtdh-knockout (Mtdh−/−) tumor cells by lentiviral transduction. To test whether interacting with SND1 is important for the tumor-initiating effect of MTDH, the murine form of WT or mutant MTDH (W394A or W401A, corresponding mutations in mouse are W391A, W398A) was stably expressed in mammary tumor cells from PyMT;Mtdh−/− mice. […] To examine how MTDH mutations affect tumor formation in vivo, PyMT;Mtdh−/− tumor cells were orthotopically transplanted into the mammary fat pads of WT recipient mice. […] Furthermore, the size of tumors formed by PyMT;Mtdh−/− tumor cells reconstituted with mutant MTDH was much smaller than that with WT MTDH (FIG. 23D-E).", "values": [{"binder": "murine MTDH TPM1 (D386R, D390R, W391D) (other, mouse, UniProt Q80WJ7 1-579, looked up, also called TPM1 (murine form)) MAARSWQDELAQQAEEGSARLRELLSVGLGFLRTELGLDLGLEPKRYPGWVILVGTGALGLLLLFLLGYGWAAACAGARKKRRSPPRKREEAAPPTPAPDDLAQLKNLRSEEQKKKNRKKLPEKPKPNGRTVEVPEDEVVRNPRSITAKQAPETDKKNEKSKKNKKKSKSDAKAVQNSSRHDGKEVDEGAWETKISHREKRQQRKRDKVLTDSGSLDSTIPGIENIITVTTEQLTTASFPVGSKKNKGDSHLNVQVSNFKSGKGDSTLQVSSRLNENLTVNGGGWSEKSVKLSSQLSEEKWNSVPPASAGKRKTEPSAWTQDTGDTNANGKDWGRNWSDRSIFSGIGSTAEPVSQSTTSDYQWDVSRNQPYIDDEWSGLNGLSSARPSSRDNAPAEEWGNWVDEDRASLLKSQEPISNDQKVSDDDKEKGEGALPTGKSKKKKKKKKKQGEDNSHTQDTEDLEKDTREELPVNTSKARPKQEKACSLKTMSTSDPAEVLIKNSQPVKTLPPAISAEPSITLSKGDSDNSSSQVPPMLQDTDKPKSNAKQNSVPPSQTKSETNWESPKQIKKKKKARRET", "binding result": "no binding"}, {"binder": "murine MTDH TPM2 (E396R, E397R, W398D) (other, mouse, UniProt Q80WJ7 1-579, looked up, also called TPM2 (murine form)) MAARSWQDELAQQAEEGSARLRELLSVGLGFLRTELGLDLGLEPKRYPGWVILVGTGALGLLLLFLLGYGWAAACAGARKKRRSPPRKREEAAPPTPAPDDLAQLKNLRSEEQKKKNRKKLPEKPKPNGRTVEVPEDEVVRNPRSITAKQAPETDKKNEKSKKNKKKSKSDAKAVQNSSRHDGKEVDEGAWETKISHREKRQQRKRDKVLTDSGSLDSTIPGIENIITVTTEQLTTASFPVGSKKNKGDSHLNVQVSNFKSGKGDSTLQVSSRLNENLTVNGGGWSEKSVKLSSQLSEEKWNSVPPASAGKRKTEPSAWTQDTGDTNANGKDWGRNWSDRSIFSGIGSTAEPVSQSTTSDYQWDVSRNQPYIDDEWSGLNGLSSADPSSDWNAPARRDGNWVDEDRASLLKSQEPISNDQKVSDDDKEKGEGALPTGKSKKKKKKKKKQGEDNSHTQDTEDLEKDTREELPVNTSKARPKQEKACSLKTMSTSDPAEVLIKNSQPVKTLPPAISAEPSITLSKGDSDNSSSQVPPMLQDTDKPKSNAKQNSVPPSQTKSETNWESPKQIKKKKKARRET", "binding result": "no binding"}, {"binder": "murine MTDH W391A (printed as W394A in human numbering) (other, mouse, UniProt Q80WJ7 1-579, looked up, also called W394A (murine form)) MAARSWQDELAQQAEEGSARLRELLSVGLGFLRTELGLDLGLEPKRYPGWVILVGTGALGLLLLFLLGYGWAAACAGARKKRRSPPRKREEAAPPTPAPDDLAQLKNLRSEEQKKKNRKKLPEKPKPNGRTVEVPEDEVVRNPRSITAKQAPETDKKNEKSKKNKKKSKSDAKAVQNSSRHDGKEVDEGAWETKISHREKRQQRKRDKVLTDSGSLDSTIPGIENIITVTTEQLTTASFPVGSKKNKGDSHLNVQVSNFKSGKGDSTLQVSSRLNENLTVNGGGWSEKSVKLSSQLSEEKWNSVPPASAGKRKTEPSAWTQDTGDTNANGKDWGRNWSDRSIFSGIGSTAEPVSQSTTSDYQWDVSRNQPYIDDEWSGLNGLSSADPSSDANAPAEEWGNWVDEDRASLLKSQEPISNDQKVSDDDKEKGEGALPTGKSKKKKKKKKKQGEDNSHTQDTEDLEKDTREELPVNTSKARPKQEKACSLKTMSTSDPAEVLIKNSQPVKTLPPAISAEPSITLSKGDSDNSSSQVPPMLQDTDKPKSNAKQNSVPPSQTKSETNWESPKQIKKKKKARRET", "binding result": "no binding"}, {"binder": "murine MTDH W398A (printed as W401A in human numbering) (other, mouse, UniProt Q80WJ7 1-579, looked up, also called W401A (murine form)) MAARSWQDELAQQAEEGSARLRELLSVGLGFLRTELGLDLGLEPKRYPGWVILVGTGALGLLLLFLLGYGWAAACAGARKKRRSPPRKREEAAPPTPAPDDLAQLKNLRSEEQKKKNRKKLPEKPKPNGRTVEVPEDEVVRNPRSITAKQAPETDKKNEKSKKNKKKSKSDAKAVQNSSRHDGKEVDEGAWETKISHREKRQQRKRDKVLTDSGSLDSTIPGIENIITVTTEQLTTASFPVGSKKNKGDSHLNVQVSNFKSGKGDSTLQVSSRLNENLTVNGGGWSEKSVKLSSQLSEEKWNSVPPASAGKRKTEPSAWTQDTGDTNANGKDWGRNWSDRSIFSGIGSTAEPVSQSTTSDYQWDVSRNQPYIDDEWSGLNGLSSADPSSDWNAPAEEAGNWVDEDRASLLKSQEPISNDQKVSDDDKEKGEGALPTGKSKKKKKKKKKQGEDNSHTQDTEDLEKDTREELPVNTSKARPKQEKACSLKTMSTSDPAEVLIKNSQPVKTLPPAISAEPSITLSKGDSDNSSSQVPPMLQDTDKPKSNAKQNSVPPSQTKSETNWESPKQIKKKKKARRET", "binding result": "no binding"}]}]}
